Source: the supplement of paper PMC10724198
± gives the standard deviation of the averaged measurements.

test system: Saccharomyces cerevisiae; assay: protein stability index of tFT-peptide fusion (C-terminal peptide) (PSI (0-1 scale)); higher = more stable (slower turnover); conditions: genetic background: wild type; temperature: 30 C
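Further: PSI is a weighted mean of sequencing reads over stability bins, variants kept only with over 10 reads, mCherry proximal and sfGFP distal, peptide attached via GGGS linker.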

Sequence | protein stability index
QTTKRKKKAKKK | 0.675 ± 0.089
CGRLSNAAEPTC | 0.792 ± 0.19
SSLNLLIHTAPL | 0.739 ± 0.023
FCIDSLNSFCFV | 0.643 ± 0.057
ATSPTPALPPLL | 0.743 ± 0.14
MRRTFQHQGRAN | 0.676 ± 0.031
REEGIEKKEKIR | 0.678 ± 0.03
GNLPQIIYSKVQ | 0.609 ± 0.037
LCRFPSSPQLPS | 0.7236 ± 0.0071
SSFFTTGAPRPP | 0.674 ± 0.061
LPFPPSPPLPSP | 0.57 ± 0.0099
GKKKIDDKGRWI | 0.678 ± 0.14
APLPPLRPPPSA | 0.687 ± 0.043
DLTRALQAGHDR | 0.695 ± 0.039
TQVGTLANASGP | 0.671 ± 0.046
KMYKRPNYQKTK | 0.64 ± 0.024
GISGGTVSILGV | 0.704 ± 0.0096
TLPFLYILDFFF | 0.589 ± 0.0081
PPRPPPLSPAPP | 0.7 ± 0.069
GDIQRSNNFTIG | 0.779 ± 0.05
LFAHPPSPPSAP | 0.654 ± 0.016
GIKMTWTNGQHF | 0.6909 ± 0.0054
GGRPVGRRRPGA | 0.671 ± 0.031
NPWYCVWYGAIT | 0.626 ± 0.068
PLPAFPRLAIQP | 0.691 ± 0.021
SLGRYVDCLLGC | 0.6463 ± 0.0044

Sequence | protein stability index
HLRPRYSLVPAT | 0.651 ± 0.048
SVRGMFPSAGVS | 0.6934 ± 0.00093
AFICGWSVGFGW | 0.697 ± 0.0072
VSLYRRFLGVYS | 0.532 ± 0.011
NGKFLREKMRWG | 0.662 ± 0.036
ETKEAKKKTIDS | 0.7217 ± 0.0065
FGRWVVVYRGLD | 0.625 ± 0.037
NGKGECSLESSS | 0.677 ± 0.013
SAQSAGRQRLQK | 0.695 ± 0.014
RYRSQNNKKLEE | 0.658 ± 0.024
SRAPRDVFSPPM | 0.72 ± 0.019
VVSQSPTLGSNY | 0.655 ± 0.022
GVWLWVLGACRR | 0.657 ± 0.057
ESLFFPFAFSSV | 0.809 ± 0.13
PARPSPRPHLPD | 0.692 ± 0.04
MPIKGRHSRSLK | 0.66 ± 0.044
GGGRGVGCMGCR | 0.688 ± 0.015
SLPPAHPPPPRP | 0.693 ± 0.026
SPSPPLASPPPL | 0.686 ± 0.016
SFGTLPLNSTAS | 0.644 ± 0.029
RAYRSTCRCSER | 0.669 ± 0.081
FETGPGSCTACA | 0.68 ± 0.0099
EGGPRTGGRGSR | 0.67 ± 0.035
FLSRLGLVGWWG | 0.643 ± 0.036
NNVCGIIFRQHH | 0.632 ± 0.048
APPPPPPLLLSF | 0.626 ± 0.038

Sequence | protein stability index
LLLSPSRLPPAD | 0.676 ± 0.043
GVRLRNLTIITI | 0.697 ± 0.037
GMSFNVPLWGSI | 0.69 ± 0.086
LFIGLAAVHAHY | 0.687 ± 0.11
GFGSSSFLCFSR | 0.669 ± 0.042
RVTNLQSRHTLH | 0.692 ± 0.023
CSGLTLLRFFVW | 0.654 ± 0.064
GGLVWEESAGVR | 0.7091 ± 0.0016
PSSPSPLRPPSP | 0.666 ± 0.096
PPSPSNPNPLRP | 0.726 ± 0.019
PLPPPLPPPSPP | 0.647 ± 0.033
PVPRCGLPLSLP | 0.685 ± 0.1
RRSLSVYPRFRT | 0.714 ± 0.037
KRITRKRIKRRR | 0.7772 ± 0.0015
GSLVGATVSKEC | 0.63 ± 0.083
GCLPGGKRESRG | 0.647 ± 0.11
LGVLGGWRRFGV | 0.72 ± 0.031
PPPVLPSPRSDP | 0.667 ± 0.17
AHFSRRCKGLFG | 0.741 ± 0.01
GGAWGHCSHEWS | 0.6882 ± 0.0052
GGGGGGGVGMMW | 0.738 ± 0.02
CLHTSVYFHLQR | 0.669 ± 0.04
FVALCHCVRISR | 0.697 ± 0.013
VCSPLLIYSVGV | 0.624 ± 0.051
GLEVGVRGVMGC | 0.688 ± 0.033
WADYLWFGLNGG | 0.712 ± 0.028

Sequence | protein stability index
TPFLPLPSRPRR | 0.726 ± 0.0078
GWGGGGGGGAGG | 0.665 ± 0.057
QSAGGTRAKFGG | 0.658 ± 0.053
KIKTIKKHKKKY | 0.713 ± 0.056
ITKELHEGEYLY | 0.727 ± 0.0086
QKWKIIRACVGC | 0.606 ± 0.049
VRVVPPQPELSP | 0.648 ± 0.051
GGGVGCRSRGAG | 0.595 ± 0.025
PPPPDHPRSSPV | 0.688 ± 0.037
LTRQCLLPGWGL | 0.707 ± 0.067
PFIPLSMLSPLV | 0.68 ± 0.036
FGFWCGWFAALP | 0.689 ± 0.0094
PPSLLFPLPLAS | 0.649 ± 0.11
GVVGVQTLIISN | 0.653 ± 0.043
AIFAPPFPPTPV | 0.69 ± 0.071
PLPRPVLPPLFS | 0.739 ± 0.073
AASPRDPQKDHA | 0.711 ± 0.057
VGPLYFPWSLNF | 0.692 ± 0.053
SPTPPRMPLSLP | 0.677 ± 0.024
SCVSCACPVYWR | 0.662 ± 0.065
PSAGPVVLPTPP | 0.704 ± 0.013
PPPVPPSPSPPP | 0.684 ± 0.013
LSSTIFHRSCVR | 0.759 ± 0.02
GFCSGGVFVEWV | 0.754 ± 0.065
AVRELIRASGPG | 0.642 ± 0.043
KKKIRKKKVRRK | 0.649 ± 0.024

Sequence | protein stability index
EGVSNGCAILLF | 0.673 ± 0.029
GTPHSKGVGFDH | 0.655 ± 0.048
PPPPPPPFRPPT | 0.651 ± 0.017
GKEKGRAEGRDG | 0.701 ± 0.023
KGKRSRTRKPEE | 0.677 ± 0.013
RDELRTSAGKGS | 0.659 ± 0.055
RSNLGLNLVLAI | 0.591 ± 0.031
SLDLALLSPFFG | 0.679 ± 0.029
KQQCKTGRRRLV | 0.716 ± 0.072
KYGTPFPPEVEM | 0.718 ± 0.034
TPSSLLLISPPS | 0.703 ± 0.083
PKYKKKNNKKKT | 0.709 ± 0.058
CSLLFSLNLMPS | 0.666 ± 0.063
VVVGWWALGRFL | 0.629 ± 0.018
GCGEGVGASVGR | 0.641 ± 0.011
PPAPPPLPLPLF | 0.72 ± 0.0079
NDGIKYQSEKRR | 0.7 ± 0.02
LLPPPPLPPPRP | 0.67 ± 0.032
VGVGRRGGVGEG | 0.654 ± 0.029
SPVQHPKHIQPG | 0.656 ± 0.008
FWVGGGVFGVRV | 0.747 ± 0.015
GTVLSVARGWCV | 0.692 ± 0.11
DRFLPPALVMYI | 0.566 ± 0.038
NSGSNKSNNRKC | 0.726 ± 0.032
MFLVLEGIDSRV | 0.65 ± 0.051
VWVGGGRRDPKY | 0.735 ± 0.075

Sequence | protein stability index
LRISIEVTNYGP | 0.517 ± 0.021
GMFDCIPPGTIP | 0.741 ± 0.094
SILWRCEEEIRR | 0.736 ± 0.029
PVPPRSPPRLPF | 0.6673 ± 0.002
GRCRPATLRGPG | 0.656 ± 0.012
PLPCSSLLVPLP | 0.627 ± 0.058
NVSFHRSHLLYF | 0.654 ± 0.0067
ASPFGFLFCCGG | 0.654 ± 0.025
PAPPAPPPPPYL | 0.735 ± 0.087
IRRRQKYPKKKS | 0.6803 ± 0.0059
CRCVRVGSVVLD | 0.632 ± 0.016
SPPLPPLPSVAF | 0.637 ± 0.16
PPPHPRPSPPSP | 0.702 ± 0.048
LRSCLSIYDCSS | 0.618 ± 0.16
RKVTSIESGVMT | 0.655 ± 0.038
LPPLAPAPPTTS | 0.617 ± 0.0065
LSGLVPSLGCRR | 0.786 ± 0.06
VALLRDSCLGVV | 0.671 ± 0.018
IAASCGPRYKDS | 0.632 ± 0.077
RKTKKKKENKRR | 0.7131 ± 0.0043
KKLNTYISQIEQ | 0.707 ± 0.0079
KIPEQRISKTKK | 0.745 ± 0.011
FVLPSPRPPSMT | 0.704 ± 0.0078
TFTESRLRMRLG | 0.623 ± 0.086
CLESKTGYEVMG | 0.7065 ± 0.0052
PRPPHPPPSSPR | 0.69 ± 0.096

Sequence | protein stability index
LCSPKPASAPGH | 0.668 ± 0.032
RFASVLSLPLSV | 0.642 ± 0.13
KKKRKKKNRGKK | 0.6789 ± 0.004
HRVVAATKSPSA | 0.727 ± 0.064
LPLPPRFRRLYL | 0.7 ± 0.038
PLPRPPRLVFSS | 0.5 ± 0.012
GSGRGRETYIAK | 0.67947 ± 0.0002
GGRGSAWRWRRG | 0.674 ± 0.014
VGGGGRSTGVGK | 0.65 ± 0.044
PPPQDPTRRRRP | 0.7116 ± 0.0054
SFSSHRSPPPPL | 0.698 ± 0.13
SVPPCSLPPLPP | 0.6407 ± 0.0048
KKKKKKEYTKTN | 0.718 ± 0.011
TLFQGHQLFKSR | 0.737 ± 0.0068
PTPSDRLPPPSH | 0.712 ± 0.0098
PPPTSSPSPSIL | 0.741 ± 0.07
APNAGPPTRSHR | 0.737 ± 0.086
RGGGGAKGEGVR | 0.707 ± 0.048
PTPHTTHPQNNT | 0.729 ± 0.0062
APRFLGLLCPLL | 0.655 ± 0.0089
QTQTAKEWAYHP | 0.686 ± 0.015
IGFNVEIRKGMG | 0.605 ± 0.082
SLPGVRVPRVGR | 0.715 ± 0.059
PSTILLRYRPSV | 0.825 ± 0.16
PPPISTLSSSPS | 0.582 ± 0.059
GCGAMGWAVPAA | 0.655 ± 0.041

Sequence | protein stability index
GDVLLLVGAGER | 0.706 ± 0.1
LRIYIKTGAKGV | 0.71448 ± 0.00053
GGYGGGWRGGGR | 0.626 ± 0.077
PSLRPPPLPPLS | 0.7214 ± 0.0025
VFPARTALFFPQ | 0.726 ± 0.05
STPSPLTLPPLP | 0.695 ± 0.024
GGTEGSGWSGGG | 0.638 ± 0.029
GYTSGEEGAVTA | 0.624 ± 0.016
GRNAGPSLLPAL | 0.684 ± 0.038
LPRPPLLTPSCL | 0.746 ± 0.06
PSPPFFLTAASL | 0.668 ± 0.01
GAPTRSYGERKR | 0.647 ± 0.0097
GMVSPVRIVSRR | 0.654 ± 0.024
NIIYKRKKGRRW | 0.6889 ± 0.001
PPPSPSSPPLSL | 0.717 ± 0.099
RRNARRARARWR | 0.637 ± 0.065
AFNPLPPFPLGF | 0.706 ± 0.034
SPPPLCCPPLAP | 0.728 ± 0.023
ILSASARPPRPA | 0.701 ± 0.011
QGCAWWGGGAGG | 0.684 ± 0.038
